# Test results as given in paper PMC8329185 (2021).
# Target: His6-DNAJB1 (human, UniProt P25685 1-340)
# Test: SPR
# Chain of His6-DNAJB1 (P25685 whole entry): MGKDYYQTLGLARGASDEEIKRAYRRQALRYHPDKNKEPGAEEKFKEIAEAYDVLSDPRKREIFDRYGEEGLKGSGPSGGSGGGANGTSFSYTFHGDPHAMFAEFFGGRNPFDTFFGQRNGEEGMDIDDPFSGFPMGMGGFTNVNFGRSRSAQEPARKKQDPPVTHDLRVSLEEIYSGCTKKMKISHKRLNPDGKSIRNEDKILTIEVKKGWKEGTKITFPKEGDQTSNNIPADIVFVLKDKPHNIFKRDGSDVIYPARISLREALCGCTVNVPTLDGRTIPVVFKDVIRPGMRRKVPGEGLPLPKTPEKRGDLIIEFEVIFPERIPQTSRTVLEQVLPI
binder,measurement,value
"GST-TrnSR (WT, without mCherry) (natural protein) MEGAKPTLQLVYQAVQALYHDPDPSGKERASFWLGELQRSVHAWEISDQLLQIRQDVESCYFAAQTMKMKIQTSFYELPTDSHASLRDSLLTHIQNLKDLSPVIVTQLALAIADLALQMPSWKGCVQTLVEKYSNDVTSLPFLLEILTVLPEEVHSRSLRIGANRRTEIIEDLAFYSSTVVSLLMTCVEKAGTDEKMLMKVFRCLGSWFNLGVLDSNFMANNKLLALLFEVLQQDKTSSNLHEAASDCVCSALYAIENVETNLPLAMQLFQGVLTLETAYHMAVAREDLDKVLNYCRIFTELCETFLEKIVCTPGQGLGDLRTLELLLICAGHPQYEVVEISFNFWYRLGEHLYKTNDEVIHGIFKAYIQRLLHALARHCQLEPDHEGVPEETDDFGEFRMRVSDLVKDLIFLIGSMECFAQLYSTLKEGNPPWEVTEAVLFIMAAIAKSVDPENNPTLVEVLEGVVRLPETVHTAVRYTSIELVGEMSEVVDRNPQFLDPVLGYLMKGLCEKPLASAAAKAIHNICSVCRDHMAQHFNGLLEIARSLDSFLLSPEAAVGLLKGTALVLARLPLDKITECLSELCSVQVMALKKLLSQEPSNGISSDPTVFLDRLAVIFRHTNPIVENGQTHPCQKVIQEIWPVLSETLNKHRADNRIVERCCRCLRFAVRCVGKGSAALLQPLVTQMVNVYHVHQHSCFLYLGSILVDEYGMEEGCRQGLLDMLQALCIPTFQLLEQQNGLQNHPDTVDDLFRLATRFIQRSPVTLLRSQVVIPILQWAIASTTLDHRDANCSVMRFLRDLIHTGVANDHEEDFELRKELIGQVMNQLGQQLVSQLLHTCCFCLPPYTLPDVAEVLWEIMQVDRPTFCRWLENSLKGLPKETTVGAVTVTHKQLTDFHKQVTSAEECKQVCWALRDFTRLFR",koff,0.00014 s⁻¹
